Reference: patent publication US20090269346A1

How the values were obtained:
[1] = biological target: LRP2 CR89 Y1042W V1047D (human) (UniProt P98164); assay: solid-phase assay, coated CR protein, anti-RAP, OD450
GFRα-1 [2] = assay: solid-phase assay (ELISA): RAP-GDNF concentration varied on GFRalpha-1, OD 450 nm; per paragraph 304 GFRalpha-1 coated on the plate and bound protein detected with anti-GDNF mAb
GFRα-1 [3] = assay: solid-phase binding assay (FIG. 11)
LRP2 CR3435 (human) = LRP2 CR3435 (human) (UniProt P98164); assay: solid-phase assay: CR protein coated on the plate, RAP-IDU titrated, bound iduronidase activity read as rfu
LRP1 CR3-5 (human) = assay: solid-phase assay, coated CR protein, RAP-IDU detected by iduronidase activity
Sequence of LRP1 CR3-5 (human) (Q07954 852-973): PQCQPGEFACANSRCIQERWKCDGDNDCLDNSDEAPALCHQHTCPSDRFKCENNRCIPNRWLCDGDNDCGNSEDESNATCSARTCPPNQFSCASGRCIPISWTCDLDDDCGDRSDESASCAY

Sequence of LRP2 CR89 Y1042W V1047D (human) (P98164 1022-1105 Y1043W/V1048D limits assumed): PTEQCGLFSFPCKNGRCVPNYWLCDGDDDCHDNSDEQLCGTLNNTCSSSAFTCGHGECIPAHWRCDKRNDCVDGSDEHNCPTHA

In the case of “wild-type RAP d3 (from UniProt P30533 235-353) (ligand)”, the % max bind [1] is reported as 11%.

“RAP-GDNF fusion protein (from UniProt P39905 78-211)” was tested, and the EC50 (read off the curve) (GFRα-1 [2]) was 2 ng/mL and the Kd (GFRα-1 [3]) was 5 ng/mL.

In the case of “RAP-IDU (fusion of RAP and human α-L-iduronidase) (from UniProt P35475 28-653)”, the Kd (LRP2 CR3435 (human)) is reported as 722 nM and the Kd (LRP1 CR3-5 (human)) is reported as 3 nM.
